Target: human NCC_(cryo1) (human) (UniProt P55017)
Test: cryo-EM structure

For “human NCC_(cryo1) (from UniProt P55017 1-1021) (natural protein)”, which stoichiometry N is on record?
Its stoichiometry N is 2.

From paper PMC10030352
